From article PMC3202057 (Journal of molecular biology, 2011)
Blank lines part the entries; values can stand above or below the binder they belong to.

Biological target: T1, N-terminal effector PYRIN domain of NLRP12 (residues 1-98) (human, UniProt P59046 1-98)
T1 sequence: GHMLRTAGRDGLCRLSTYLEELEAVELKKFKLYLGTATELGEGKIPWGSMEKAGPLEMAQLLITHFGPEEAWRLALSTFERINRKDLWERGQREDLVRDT
Test: NMR titration

Kd: ≥ 150 µM
B1: FAF-1 UBA domain (residues 1-57) (domain or fragment, UniProt Q9UNN5 1-57, looked up)
chain: MASNMDREMILADFQACTGIENIDEAITLLEQNNWDLVAAINGVIPQENGILQSEYG

Kd: ≥ 50 µM
B2: FAF-1 UBA domain and linker region (residues 1-99) (domain or fragment, UniProt Q9UNN5 1-99, looked up)
chain: MASNMDREMILADFQACTGIENIDEAITLLEQNNWDLVAAINGVIPQENGILQSEYGGETIPGPAFNPASHPASAPTSSSSSAFRPVMPSRQIVERQPR
